Molecular target: SpA on the surface of live S. aureus TCH1516 (USA300 MRSA strain) (Staphylococcus aureus strain USA300 …, UniProt A0A0H3K686 37-508)
Test: cell-based or functional assay

B1: 10901_QRF (Lys274Gln, His435Arg, Tyr436Phe Fc mutant), CHO expressed IgG1 (antibody)
heavy: EVQLVQSGAEVKKPGASVKVSCKASGYTFSHYYMHWVRQAPGQGLEWMGIINPRYGSTSYAQKFQGRVTMTRDTSTSTVYMELSSLRSEDTAVYYCARDGEVGARDLGWFDPWGQGTLVTVSSASTKGPSVFPLAPSSKSTSGGTAALGCLVKDYFPEPVTVSWNSGALTSGVHTFPAVLQSSGLYSLSSVVTVPSSSLGTQTYICNVNHKPSNTKVDKKVEPKSCDKTHTCPPCPAPELLGGPSVFLFPPKPKDTLMISRTPEVTCVVVDVSHEDPEVQFNWYVDGVEVHNAKTKPREEQYNSTYRVVSVLTVLHQDWLNGKEYKCKVSNKALPAPIEKTISKAKGQPREPQVYTLPPSRDELTKNQVSLTCLVKGFYPSDIAVEWESNGQPENNYKTTPPVLDSDGSFFLYSKLTVDKSRWQQGNVFSCSVMHEALHNRFTQKSLSLSPG
light: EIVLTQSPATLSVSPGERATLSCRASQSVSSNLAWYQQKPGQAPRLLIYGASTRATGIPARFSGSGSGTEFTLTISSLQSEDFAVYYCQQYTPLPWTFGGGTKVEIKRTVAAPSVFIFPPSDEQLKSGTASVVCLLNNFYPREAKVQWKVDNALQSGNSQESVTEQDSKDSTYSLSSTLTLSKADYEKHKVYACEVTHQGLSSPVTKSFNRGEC
For B1, which “killing of S. aureus in opsonophagocytic killing (OPK) assay with human PMNs” value is on record?
The value was about 80%.

Reference: US20180105584A1 (published 2018)
